Results: article PMC5441855

Tested on: CC(C)=CCC/C(C)=C/CC/C(C)=C/CC/C(C)=C/COP(=O)(O)OP(=O)(O)O
Test: purified protein
Details: 50 mM HEPES pH 7.0, 100 mM KCl, 0.1 mM MgCl2, 10% glycerol, 30 °C, 1-25 µM GGPP, 30 s, product (-)-kolavenyl diphosphate

SdKPS (Tr-SdKPS) (Salvia divinorum)
Km: 1.9 ± 0.66 µM
kcat: 0.88 ± 0.11 s⁻¹
